In patent publication US20160243251:

What was measured:
Test in all cases: FP
[1] = system: KRRRC(-TMR)-NH2 (LKLRLRLRLC(-TMR)-NH2) (synthetic); settings: 2 mM NaCl, pH 7.4; p253 text gives 46 ± 9
[2] = system: T1, TMR-(CH2)5-DKDRDRDR-NH2 (synthetic); settings: 2 mM NaCl, pH 7.4
T1 sequence: KRRR

[3] = system: T2, TMR-(CH2)5-KRRR-NH2 (L) (synthetic); settings: 2 mM NaCl, pH 7.4
T2 sequence: KRRR

[4] = system: T3, TMR-DKDRDRDR-NH2 (synthetic); settings: 2 mM NaCl, pH 7.4
T3 sequence: KRRR

[5] = system: TMR-DRDRDRDK-NH2 (synthetic); settings: 2 mM NaCl, pH 7.4
[6] = system: TMR-KKKK-NH2 (TMR-LKLKLKLK-NH2) (synthetic); settings: 2 mM NaCl, pH 7.4
[7] = system: T4, TMR-KRRR (TMR-LKLRLRLR, C-terminal carboxylate) (synthetic); settings: CITED Xiong et al; pH 7.4; DNA assumed same 30-mer; cited from earlier work
T4 sequence: KRRR

[8] = system: T5, TMR-KRRR-NH2 (TMR-LKLRLRLR-NH2) (synthetic); settings: 2 mM NaCl, pH 7.4
T5 sequence: KRRR

[9] = system: T6, TMR-LKDRLRDR-NH2 (synthetic); settings: 2 mM NaCl, pH 7.4
T6 sequence: KRRR

[10] = system: TMR-LRL-LRL-LRL-LRL-NH2 (tetra L-homo-arginine) (synthetic); settings: 2 mM NaCl, pH 7.4
[11] = system: TMR-LRS-LRS-LRS-LRS-NH2 (tetra L-2-amino-3-guanidinopropionic acid) (synthetic); settings: 2 mM NaCl, pH 7.4
[12] = system: TMR-RRRK-NH2 (TMR-LRLRLRLK-NH2) (synthetic); settings: 2 mM NaCl, pH 7.4
[13] = system: TMR-RRRR (TMR-LRLRLRLR, C-terminal carboxylate) (synthetic); settings: CITED Xiong et al; pH 7.4; DNA assumed same 30-mer; cited from earlier work
[14] = system: TMR-RRRR-NH2 (TMR-LRLRLRLR-NH2) (synthetic); settings: 2 mM NaCl, pH 7.4
[15] = system: TMR-β3Kβ3Rβ3Rβ3R-NH2 (synthetic); settings: 2 mM NaCl, pH 7.4
[16] = system: TMR-β3Rβ3Rβ3Rβ3K-NH2 (synthetic); settings: 2 mM NaCl, pH 7.4

For “GACGACTAGGACGACGACGAGGATGACGAC (double strand) [30-mer dsDNA]”, which Kd [1] is on record?
The Kd was 54 nM.

What about the Kd [2] of the same sequence?
Its Kd is 47 nM.

And the Kd [3]?
The Kd was 46 nM.

And the Kd [4]?
The Kd was 44 nM.

And the Kd [5]?
Its Kd is 37 nM.

What about the Kd [6] of the same sequence?
The Kd was 53 nM.

What about the Kd [7] of the same sequence?
Its Kd is 197 nM.

What about the Kd [8] of the same sequence?
Its Kd is 46 nM.

And the Kd [9]?
The Kd was 36 nM.

And the Kd [10]?
Its Kd is 13 nM.

And the Kd [11]?
Its Kd is 129 nM.

What about the Kd [12] of the same sequence?
Its Kd is 28 nM.

And the Kd [13]?
The Kd was 236 nM.

What about the Kd [14] of the same sequence?
The Kd was 31 nM.

What about the Kd [15] of the same sequence?
Its Kd is 41 nM.

What about the Kd [16] of the same sequence?
The Kd was 49 nM.
